{"source": "the DeepSol protein solubility set", "data": [{"test": "soluble on expression in E. coli; label from the status in PepcDB or PDB records", "values": [{"sequence": "MGSDKIHHHHHHMEPNDAVVGVDVSKEHLDVYLMPTGDQKRVTNDDAGCAELTTWLITNAPCRIVLEATGGLEMLAVSTLSAAGLPVVVVNPRQVRNFAKACGLLAKTDILDAKIIARFAQAIKPEIRPLKDETSQNLAALLARRRQLVEMLVAEKNRVISAAPTVRKGIMTHIAWLTQQIDDVDKDISTLIQSSESWKAKEEILTSVKGIGPVTAATILAALPELGTISRQQLGALVGVCPYNRDSGKFRGKRAISGGRATVRSVLYMATLCAARFNPVIKAFYQRLTSAGKLHKVAITACMRKLLTILNAMVKNNQKWDHSKFTPLLH", "soluble on expression in E. coli": "not soluble"}, {"sequence": "GMTFRDTSAIASWHAHVYFDASSRDAAWTLREQIEAHWSGKLQLGRFHERPVGPHPMWSYQLAFTQEQFADLVGWLTLNHGALDIFLHPNTGDALRDHRDAAVWIGHSHELVLSALN", "soluble on expression in E. coli": "soluble"}, {"sequence": "MGSDKIHHHHHHMSQPPLPAVCTQAASALLPVAIDYPAALALRQMAMQHDDYPKYLLAPEVSALLHYVPDLHRRMLLATLWNTGARINEALALTRGDFSLAPPYPFVQLATLKQRAEKAARTAGRMPSGSQPHRLVPLSDNQYVSELQMMVATLKIPLERRNRRTGRTEKARLWEITDRTVRTWIGEAVEAAAADDVTFSVPVTPHTFRHSYAMHMLYAGIPLKVLQALMGHKSVSSTEVYTKVFALDVAARHRVQFQMPGADAVAMLKGGS", "soluble on expression in E. coli": "not soluble"}, {"sequence": "MTRIVVLGAGFAGLWAAIGAARKRDEIGAAGRDIEIRVVDRNPYHNIRVRNYEVDLSEVALPLGQLLDPIGVTHGLGEVEAIDPARREISLVTSDGEETLGYDRLVLAVGSEVTRPDIPGLADHAFDVDTYIAALRLEDHLVSLGRSVPSPGRSTVVVVGAGFTGIEVAAEMPDRLARAGITGSRCIILVDPNPTVGATIGAHARPVIETALSALDIETRLGARVASVEAAGVQLSSGEFIPAQTVIWCAGLRASRLAASLPGARDRLGRLLVDPFMRVADLPCVFAAGDVASSVVDGLHPTVMSCQFARPMGRFAGHNVVADLLGLPMLPLRIDWYVTVLDLGSWGALYTEGWDREVRTTGAAAKATKQTINRKRIYPPLNGSKDELFAAAAPTVQTPPPTYGARLEHHHHHH", "soluble on expression in E. coli": "soluble"}, {"sequence": "MATQKEKPSSNSFKWFSTKTLKLNLSFQNRRRSPKSNSSSTLNSPRSNSDDNNNIKSHQASKEELRQVFSHFDSDGDGKISAFELRHYFGSVGEYISHEAAQEAINEVDTDADGSLGFEDFVGLMTRRDLYGDGEVDGDGELKTAFEMFEVEKGSGCITPKGLQKMLVKLGESRTYGECEAMIKFYDIDGNGILDFHEFRQMMTV", "soluble on expression in E. coli": "soluble"}, {"sequence": "MKIAYFSDTYYPTPDGVSTYLKDVKRGLEKRGHEVYIFSLTGDPHEKNVFIPRTVPFPPYDQYRMPLIPFPFREFKTAVDIMPDVIHLHNAFYMSSVGYLVARRLGKKPISTFHTDIDKMRESIRLPFSDLIFDLGKRYSIYLYRKCKFVLAPSCQVKAYLERCGLKNIVTVPLFVDTDELSPAKASNKQDIILYLGRLTKDKGVYRVLELANEMKGTGYKFIIAGVGPELERMKAYVKENDISNVNILGYVKEDEKKQLMEVSKFFIYPSSADTFGISVFEALSMGLPAIVSKEFPVKEDTNAIVYEDFSNIKHIANKLLNIDQATYSEMSTSARTLAISKYSIDRHIDQLLSLYMSLVDHLEHHHHHH", "soluble on expression in E. coli": "not soluble"}, {"sequence": "MSLGNNLKKKNGADSLYYTTRTFATTKEVIQANKFVNSEKLNEIAKKTDCTYLKSPAGIFTQATLPINKIYEELSHDTINAVKLTFNSYNQPDNGKFSMKAPTYVLLLREKERQSFFEENKLTDNITSYLAVHNAIISNKPTTNQYVFTNLTRLINACVNEKQEAKKKAGDSWNEAAWEAANPDWNKVVLIPVLVQYDSSSNKNMISIQHDLQPGYVKLEGGPDGTKLKLEVTYTNFNGKEGHHHHHH", "soluble on expression in E. coli": "soluble"}, {"sequence": "GSQDVKCSLGYFPCGNITKCLPQLLHCNGVDDCGNQADEDNCG", "soluble on expression in E. coli": "soluble"}, {"sequence": "GSMDQNTTEPVAATETLAEVPEHVLRGLPEEVRLFPSAVDKTRIGVWATKPILKGKKFGPFVGDKKKRSQVKNNVYMWEVYYPNLGWMCIDATDPEKGNWLRYVNWACSGEEQNLFPLEINRAIYYKTLKPIAPGEELLVWYDGEDNPEIAAAIEEERASARS", "soluble on expression in E. coli": "soluble"}, {"sequence": "MLKQTFLLSALLFGLSACQSTDVAKQDTVPLQGSWHIEAVQGQPTVDYSPAQITFDAEGKISGNNSCNNFFGQYSQQGQELKIIPGGSTMKACVDALMQQEHKVMQALPLVAKAKLVEGRLTLLSSDDKAVFVLSQLK", "soluble on expression in E. coli": "soluble"}, {"sequence": "GAMGMQQGQMAYDRAITVFSPDGRLFQVEYAREAVKKGSTALGMKFANGVLLISDKKVRSRLIEQNSIEKIQLIDDYVAAVTSGLVADARVLVDFARISAQQEKVTYGSLVNIENLVKRVADQMQQYTQYGGVRPYGVSLIFAGIDQIGPRLFDCDPAGTINEYKATAIGSGKDAVVSFLEREYKENLPEKEAVTLGIKALKSSLEEGEELKAPEIASITVGNKYRIYDQEEVKKFL", "soluble on expression in E. coli": "soluble"}, {"sequence": "MSAYKTVVVGTDGSDSSMRAVDRAAQIAGADAKLIIASAYLPQHEDARAADILKDESYKVTGTAPIYEILHDAKERAHNAGAKNVEERPIVGAPVDALVNLADEEKADLLVVGNVGLSTIAGRLLGSVPANVSRRAKVDVLIVHTT", "soluble on expression in E. coli": "not soluble"}, {"sequence": "SLKCLVLTGISRNVIEELMRRNIRTIELRSAHNVATALKAEPGDCVFLTPARINDLGRGVSGLVAEVRGKEVMSQSLFYQSPSYIEESELTVVRLMLKPKSLGRLVQVKRGAFLETIEGDVVEMSYFDAR", "soluble on expression in E. coli": "soluble"}, {"sequence": "MAGATDQRRQEVLRAIVADYIASQEPVGSKALLERHNLKVSSATIRNDMAVLESEGYIVQQHASSGRIPTEKAYRTFVDSINDIKPLSVAERRAILGFLERGVDLEDVLKRSVQLLSQLTRQAAVIQLPNLNVSRVKHCEVVLLSPVRLLLVLITDNGRVEQRNVEVDQICEPEHVAKMRDVLNRALDNKTLSDASASLAELAAGEILVDPDIQPMILRCATVLIETLVEQPNDRLILAGASNLTHIAREMPSSLPAMLEALEEQVVVLKLLTNVRDLGHVSVLIGEENEDEQLRGTSVVTTGYGAQGATLGGLGVVGPTFMDYSGTMSKVYAVAHYVSRVLSGG", "soluble on expression in E. coli": "not soluble"}, {"sequence": "MGSDKIHHHHHHMKLIAVGDNVVDYYQDQETFYPGGNALNVAVLAKRLGHESSYIGIVGNDEAAAHLLNVLKLEQVNADYIRQAHGENGMAIVTLDEQGDRIFVRSNKGGIQSRLRLAFQEKDVSFISGHDLLHTSVYSRLENDLPQLCGLVPVSFDFSTNREDDYLRRVCPYVTYAFFSGSDLSESECGELAKTAHGYGAKMVCMTRGGQGAILSAGDRVYHQPIVEADIIDTLGAGDSFIAGFLTAFCVKQDITYALRQAAETAAKTCGVYGAFGYGYPYRLEDGGSSEKTRIL", "soluble on expression in E. coli": "not soluble"}, {"sequence": "MSLARTLVIGNKNYSSWSMRPWIALKATGVAFDEVVIPLYTGDADKRRILAFTPAGKVPVLVDGDVTIWDSLAIIEYAAERFPKAQLWPDDVAARAHARSVAAEMHSGFAALRNECGMNIHRPVGAKQLSDAARADIARVQEIWIDCRHRYGRFGPYLFGRFSGVDAMFAPVVHRFRTYAVELDPIAQGYVEVMMALPAFQEWTQAALAETWVIDKFETEGHHHHHH", "soluble on expression in E. coli": "soluble"}, {"sequence": "MSLKIDSIIFDLDGTLWNSIEGVCEAWKVVLKRHSNINKIITPKDIKASMGLQIDEIGKLLFPEEDEKMQLQLMNECCDEEKLYLGEHGGKLFAKLEPTLNKLSQKYKLFIVSNCEDGYIQSFFKAHGLNKYFTDFECSGVTGLSKGENNKLIIKRNSLKNPVYVGDTLKDFESAKIANIPFVYARYGFGDVNEYDYVIDSFEEMLTLDEGHHHHHH", "soluble on expression in E. coli": "soluble"}, {"sequence": "MFRMLNSSFEDDPFFSESILAHRENMRQMIRSFSEPFGRDLLSISDGRGRAHNRRGHNDGEDSLTHTDVSSFQTMDQMVSNMRNYMQKLERNFGQLSVDPNGHSFCSSSVMTYSKIGDEPPKVFQASTQTRRAPGGIKETRKAMRDSDSGLEKMAIGHHIHDRAHVIKKSKNKKTGDEEVNQEFINMNESDAHAFDEEWQSEVLKYKPGRHNLGNTRMRSVGHENPGSRELKRREKPQQSPAIEHGRRSNVLGDKLHIKGSSVKSNKKLEHHHHHH", "soluble on expression in E. coli": "soluble"}, {"sequence": "GLSAAQRQVVASTWKDIAGSDNGAGVGKECFTKFLSAHHDMAAVFGFSGASDPGVADLGAKVLAQIGVAVSHLGDEGKMVAEMKAVGVRHKGYGNKHIKAEYFEPLGASLLSAMEHRIGGKMNAAAKDAWAAAYADISGALISGLQS", "soluble on expression in E. coli": "soluble"}, {"sequence": "MTITGIIAEFNPFHNGHKYLLDQAEGLKIVAMSGNFMQRGEPAIVDKWTRTQMALENGADLVVELPFLVSVQAADFFGQGAMDILDRLGIDSLVFGTEEVRDYQKIADLYTEKGAEMEKFVENLPDSLSYPQKTQAMWKEFAGLDFSGNTPNHVLALAYAKAVAGRNIKLHPIQRQGAGYHSVNKDVDFASATALRQHQKDQDFLERFMPSVALFEQASKVIWEDYFPLLRYQILSNPDLTTIYQVNQEMAVRIKEAIKTAQSVEELVELVTTKRYTKARVRRLLTYILMQARESDLPEAIHVLGFTEKGRQHLKSLKGQVSLVSRIGKEPWDAMTQKADQIYQLGKPSIAEQNFGRVPIRIETN", "soluble on expression in E. coli": "soluble"}, {"sequence": "FLLPPSTACCTQLYRKPLSDKLLRKVIQVELQEADGDCHLQAFVLHLAQRSICIHPQNPSLSQWFEHQERKLHGTLPKLNFGMLRKMG", "soluble on expression in E. coli": "soluble"}, {"sequence": "GMPAPLRFSSDKPLLLLIDMQQAVDDPSWGPRNHPQAEQACAGLLQAWRARGLPLIHIRHDSVEPNSTYRPGQPGHAFKPEVEPRPGETVIAKQTNSAFIGTGLEALLRANGWLELVVAGVSTSNSVEATVRMAGNLGFAVCLAEDGCFTFDKTDWHGRRRSADEVHAMSLANLDGEYCRVCGSADILAALGNIAGAA", "soluble on expression in E. coli": "soluble"}, {"sequence": "MGSDKIHHHHHHMSAFNAVQVGRRVLAVEADALRVLADSLGEAFANAVETIFNAKGRVVCTGMGKSGHVARKIAATLASTGTQAMFVHPAEASHGDLGMIGPDDVVLALSKSGAGRELADTLAYAKRFSIPLIAMTAVADSPLGQAGDILLLLPDAPEGTAEVNAPTTSTTLQIALGDAIAVALLERRGFTASDFRVFHPGGKLGAMLRTVGDLMHGADELPLVAADAAMPDALLVMSEKRFGAVGVVDNAGHLAGLITDGDLRRHMDGLLTHTAGEVMTHAPLTIGPGALAAEALKVMNERRITVLFVVERERPVGILHVHDLLRAGVI", "soluble on expression in E. coli": "not soluble"}, {"sequence": "METAPKPVGPYSQAVESGCFMFVSGQIPINPETGALEEGGFKESAKRALDNLKAIVEGAGYSMDDIVKVTVYITDISRFSEFNEVYREYFNRPYPARAVVGVAALPLGAPLEVEAVLYTCRRK", "soluble on expression in E. coli": "soluble"}, {"sequence": "MGSDKIHHHHHHMDYLTTNKIAWDARTRVHLTSDFYDVEGFLSGKISLTEIELNELAVAGKSLLHLQCHFGLDTLSWARMGAKVTGVDLSEVAIAEACKLAQQTQLSAEFICSDVYSVVGKVEPQDIVFTSYGAIVWLPDLTLWAQTIAACLKPGGQFYMAEFHPAQQLFDGYSYFNRGEPDIEQEGTYTENASDDQQTLMCWSHSLSEVINALLQAGLELVFFHEFAFSPYNCFEGLEAQADGRYVLIHQGQQVPLVYSISARKPV", "soluble on expression in E. coli": "not soluble"}, {"sequence": "MTITQRDASSADAICLSALGMQVFLDTYATQGIRESIAREALDAFSPQAFAHLLAEPATLIIVAESQGHLIGFAQFALRTDHPMLGIPTAAELQRLYVQERFTGRGVGRLLLEAAEQRAAAGNATLLWATVWVGNPRALGVYPRQGYEVKGSPRYVFQGETHENCLFAKAIVKAVR", "soluble on expression in E. coli": "not soluble"}, {"sequence": "MNTPRIPIASHQAVMRCLRDKLQQANLTLQTDYTEPAVSYQQRGATAGTAWLQHWEIRLNPVLLQENQQTFIDEVVPHELAHLLVYARFGRVAPHGKEWRWMMENVLHVPAKRTHRFAVQSVQGKTFTYLCDCQRHELTIRRHNRVLRGETEYRCRRCGKTLRHDVKSSILEHHHHHH", "soluble on expression in E. coli": "soluble"}]}]}
